Molecular target: the molecule itself
Experiment: SEC

B1: EspC (ESX-1 secreted protein C), wild type (natural protein)
chain: MMTENLTVQPERLGVLASHHDNAAVDASSGVEAAAGLGESVAITHGPYCSQFNDTLNVYLTAHNALGSSLHTAGVDLAKSLRIAAKIYSEADEAWRKAIDGLFT
For B1, the “stoichiometry N” value was 6.
